Our source for the Kd values is PMC10027511 (2023).

By Kd is commonly meant the constant that tells how readily two partners part at equilibrium.

For test [1], the target named is T1, Sos site 2 peptide site 2 peptide (Drosophila melanogaster, UniProt P26675).
T1 chain: GELSPPPIPPRL
As to the kind of experiment: 19F NMR lineshape analysis, 4.2 °C.

For test [2], the target named is T1, Sos site 2 peptide site 2 peptide. Nature of the test: 19F NMR lineshape analysis, 45 °C.
The target is the same in test [3]. Nature of the test: 19F NMR lineshape analysis, 25 °C.
For test [4] the target is unchanged. As to the kind of experiment: 19F NMR lineshape analysis, 15 °C.
Test [5] shares this target. As to the kind of experiment: 19F NMR lineshape analysis, 35 °C.

B1: Drk N-terminal SH3 domain N-terminal SH3 (protein)
chain: MEAIAKHDFSATADDELSFRKGQILKILNMEDDSNWYRAELDGKEGLIPSNYIEMKNH
On to B1, for which the Kd in test [1] was determined as 9 µM; in test [2], 110 µM; in test [3] it was 33 µM; in test [4] it was 17 µM; in test [5] it was 59 µM.
